Data published in publication PMC6891888.

Legend:
[1] = biological target: 16055 NFL TD 2CC+ trimer (HIV-1 (strain 16055)); test: cryo-EM structure
[2] = biological target: BG505 NFL CC+ trimer (HIV-1 (strain BG505)); test: cryo-EM structure

Substance | stoichiometry N [1] | stoichiometry N [2]
16055 NFL TD 2CC+ trimer (domain or fragment) | 3 | 
BG505 NFL CC+ trimer (domain or fragment) |  | 3
